Patent US20190002571A1, “INHIBITION OF CCL5 LIGAND BINDING TO CCR5 RECEPTOR AND ALTERATION OF CCR5/CCL5 AXIS SIGNALING IN INFLAMMATION, CANCER, AUTOIMMUNE, AND OTHER CONDITIONS” (CytoDyn Inc., priority 2015, published 2019)

How the values were obtained:
human CCR5 [1] = target: T1, human CCR5 (Homo sapiens, UniProt P51681); test: Migration (chemotaxis) assay with CHO-K1-hCCR5 cells, ATPlite readout; format: cell-based; design: Production of the full length protein was confirmed by western blot; expressed in transfected cells; host or cells: CHO-K1; conditions: for concentrations at which CCL5 induced migration was inhibited: constant dose of CCL5 0.005 μM; for chemotactic response / direct induction of migration, agent alone: single agent over its concentration range (MVC 0.0045-10 μM; CCL5 0.0007-0.50 μM), FIG. 4, FIG. 5
T1 sequence (P51681 whole entry): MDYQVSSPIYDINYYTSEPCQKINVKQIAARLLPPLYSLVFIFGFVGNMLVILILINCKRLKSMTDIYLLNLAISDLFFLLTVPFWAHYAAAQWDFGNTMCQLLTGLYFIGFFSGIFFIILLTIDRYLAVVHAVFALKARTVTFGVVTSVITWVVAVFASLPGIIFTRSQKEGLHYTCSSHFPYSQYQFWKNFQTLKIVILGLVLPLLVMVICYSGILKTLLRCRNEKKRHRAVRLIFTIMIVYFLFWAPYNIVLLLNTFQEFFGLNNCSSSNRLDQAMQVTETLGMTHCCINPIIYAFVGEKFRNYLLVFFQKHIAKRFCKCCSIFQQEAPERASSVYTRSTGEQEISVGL
From the text: This experiment was designed to investigate the role of PRO 140 on chemotaxis induced by CCL5 engagement of the CCR5 receptor on CHO-CCR5 target cells (CHO-K1 cell line).
a. Cell Lines: The CHO-K1 cell line was transfected with a human CCR5 expression plasmid and selected for expression. Production of the full length protein was confirmed by western blot. Fluorescence-activated cell sorting (FACS) analysis was used to sort for cells that expressed CCR5 on the surface and these cells were purified and expanded.
b. Methods: Migration assays were done in Multiscreen MC plates using CHO-K1-hCCR5 cells in the upper chamber and with media and test agents in the bottom chamber. The agents tested included: PRO 140, Maraviroc (MVC), CCL5, forskolin (FSK), and an IgG4 control as single agents, and PRO 140+CCL5, and Maraviroc+CCL5 as combined agents. The effects on the Chemotaxis Index were measured over a wide concentration range of the test substance. The Chemotaxis Index was calculated as the migration of cells into the lower chamber with a test substance divided by the migration of cells into the lower chamber without the test substance or with a control substance. Migration was measured using the ATPlite assay. All assays were performed in triplicate. Data analysis was determined by the Chemotaxis Index over a wide concentration range of the test substance. Dose ranges of test agents were as follows: PRO 140 was 0.0045-10 ug/ml; MVC was 0.0045-10 μM; CCL5 was 0.0007-0.50 μM; FSK was 0.0045-10 μM; IgG4 control was 0.0045-10 μg/ml.

human CCR5 [2] = target: T1, human CCR5; test: cAMP accumulation in primary CD4+ CCR5+ T cells (radioimmunoassay); format: cell-based; design: Primary CD4+ cell lines were prepared from healthy human donors and grown for 7-10 days prior to sorting for CD4+ CCR5+ T cells; endogenous in cells; host or cells: primary human CD4+ CCR5+ T cells (PHA/IL-2 expanded PBMC, FACS sorted); conditions: for cAMP accumulation (stimulated): single agent with rolipram 20 uM and forskolin 10 uM; for cAMP accumulation (stimulated) / cAMP accumulation (unstimulated, basal): PRO 140 1 ug/ml, CCL5 0.1 uM; for cAMP accumulation (unstimulated, basal): single agent with rolipram 20 uM, 37° C., 10 minutes; for effect on cAMP levels as single agent: single agents, CD4+ CCR5+ T cells
Description: The first set of experiments was designed to see if PRO 140 has antagonist and/or agonist activity for alternative signaling pathways known to be activated downstream of CCR5 engagement, such as G-protein mediated modulation of intracellular cyclic AMP (cAMP) or specific tyrosine kinase activation.
a. Cell Lines: Primary CD4+ cell lines were prepared from healthy human donors and grown for 7-10 days prior to sorting for CD4+ CCR5+ T cells. PBMC were stimulated with 1 ug/ml of PHA-L Sigma (2E6/well in 24 well plates). PHA lines were expanded using 30 U/ml IL-2 for 24 hours after stimulation and every other day until FACS sorting for CD4+ CCR5+ T cells (on days 7-10). FACS sorting was done using anti-human CD4-percp-Cy5.5 clone RPA-T4, Mouse IgG1k, at 25 ug/ml, with a working concentration of 0.125 ug/ml. Anti-human CCR5-PE clone NP-6G4, Mouse IgG1k, concentration 25 ug/ml, working concentration 1.25 ug/ml was used.
b. Methods: Cell lines were assayed for cAMP levels in the absence or presence of rolipram (20 uM, a cyclic nucleotide phosphodiesterase-4 (PDF-4) inhibitor) with either no addition (basal cAMP) or in response to forskolin (FSK) (10 uM, a non-specific activator of cAMP synthesis), PRO 140 (1 ug/ml), forskolin+PRO 140, CCL5 (0.1 uM), CCL5+ forskolin, or PRO 140+ CCL5+ forskolin. Incubations (0.5E6 cells/ml) were conducted at 37° C. for 10 minutes and then terminated by addition of ice-cold 7.5% trichloroacetic acid (TCA). cAMP was quantified by radioimmunoassay. Statistical significance was determined by unpaired, one-tailed t test analysis using GraphPad prism software, version 4.0

chemotactic response / direct induction of migration, agent alone (human CCR5 [1])	cAMP accumulation (stimulated) (human CCR5 [2]; FIG. 2) [fmoles cAMP/0.5E6 cells]	cAMP accumulation (unstimulated, basal) (human CCR5 [2]; no forskolin, FIG. 1) [fmoles cAMP/0.5E6 cells]	effect on cAMP levels as single agent (human CCR5 [2])	Chemotaxis Index (chemotactic response), agent alone (human CCR5 [1]; FIG. 4, PRO 140 alone, concentration range 0.0045-10 μg/ml)	Chemotaxis Index, agent alone (human CCR5 [1]; FIG. 6, PRO 140 alone, concentration range 0.0045-4.0 μg/ml)	concentrations at which CCL5 induced migration was inhibited (human CCR5 [1]; FIG. 6)	cAMP accumulation (stimulated) in the presence of CCL5 (human CCR5 [2]; rolipram + PRO 140 1 ug/ml + CCL5 0.1 uM + forskolin 10 uM, FIG. 2) [fmoles cAMP/0.5E6 cells]	cAMP accumulation (unstimulated, basal) in the presence of CCL5 (human CCR5 [2]; rolipram + PRO 140 1 ug/ml + CCL5 0.1 uM, no forskolin, FIG. 1) [fmoles cAMP/0.5E6 cells]	Molecule	concentration range in which the chemotactic response was significant (human CCR5 [1]; MVC alone, FIG. 4)	concentrations at which CCL5 induced migration was inhibited (human CCR5 [1]; FIG. 5)	chemotactic response / direct induction of migration, agent alone (human CCR5 [1]; listed as MVC)	effect on CCL5 triggered decrease in cAMP levels (human CCR5 [2]; PRO 140 combined with CCL5)
–	–	–	–	–	–	–	–	–	Maraviroc	above 0.01 μM	above 0.05 μM	significant direct induction of migration	–
pronounced	3800	60	decreased cAMP levels	–	–	–	–	–	CCL5: C-C chemokine ligand 5, inflammatory chemokine also known as RANTES; natural CCR5 ligand [reference compound]	–	–	–	–
–	6300	110	no effect on cAMP levels	0	less than 3	above 0.4 μg/ml	5700	107	PRO 140: a known humanized monoclonal antibody CCR5 antagonist with anti-HIV properties (antibody, chains of the INN, looked up, V domains shown) VH: EVQLVESGGGLVKPGGSLRLSCAASGYTFSNYWIGWVRQAPGKGLEWIGDIYPGGNYIRNNEKFKDKTTLSADTSKNTAYLQMNSLKTEDTAVYYCGSSFGSNYVFAWFTYWGQGTLVTVSS VL: DIVMTQSPLSLPVTPGEPASISCRSSQRLLSSYGHTYLHWYLQKPGQSPQLLIYEVSNRFSGVPDRFSGSGSGTDFTLKISRVEAEDVGVYYCSQSTHVPLTFGQGTKVEIK	–	–	–	diminished the effects of CCL5 on decreasing cAMP
